Assay results published in patent publication US20250361288A1 (Gilead, published 2025).
Numbering of substitutions follows the chain as printed. Numbers in names are those of the source.

T1: human HVEM extracellular domain fused with an Fc fragment at the C-terminus (human, UniProt Q92956 39-202)
T1 construct: extracellular domain; Bought; also called hHVEM; not shown: Fc fragment at the C-terminus
T1 sequence (looked up): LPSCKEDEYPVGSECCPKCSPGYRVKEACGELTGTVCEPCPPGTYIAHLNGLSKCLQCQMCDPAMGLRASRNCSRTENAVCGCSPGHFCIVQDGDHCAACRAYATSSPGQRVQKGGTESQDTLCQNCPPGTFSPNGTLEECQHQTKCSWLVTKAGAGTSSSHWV

T2: recombinant DcR3 protein (human DcR3 residues 33-300 linked to the N-terminal of rabbit Fc) (human, UniProt O95407 33-300)
T2 construct: range 33-300; Expressed in Expi293F, purified on protein A; not shown: rabbit Fc
T2 sequence (looked up): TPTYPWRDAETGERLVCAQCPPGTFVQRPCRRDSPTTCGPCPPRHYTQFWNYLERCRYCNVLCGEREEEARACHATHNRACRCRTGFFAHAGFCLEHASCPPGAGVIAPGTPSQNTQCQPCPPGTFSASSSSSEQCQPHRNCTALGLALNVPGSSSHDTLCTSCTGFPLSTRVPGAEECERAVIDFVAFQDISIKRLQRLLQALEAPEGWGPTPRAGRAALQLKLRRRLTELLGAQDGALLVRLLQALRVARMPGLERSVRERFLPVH

T3: mouse HVEM extracellular domain fused with an Fc fragment at the C-terminus (mouse, UniProt Q80WM9 39-206, limits assumed)
T3 construct: extracellular domain; Bought; also called mHVEM; not shown: Fc fragment at the C-terminus
T3 sequence (looked up): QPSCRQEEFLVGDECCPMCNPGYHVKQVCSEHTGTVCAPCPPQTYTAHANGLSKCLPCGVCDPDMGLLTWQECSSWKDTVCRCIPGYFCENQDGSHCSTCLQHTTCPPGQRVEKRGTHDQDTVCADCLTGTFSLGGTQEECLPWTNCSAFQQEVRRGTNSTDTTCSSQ

B1: LIGHT (74-240) (ligand)
chain: DGPAGSWEQLIQERRSHEVNPAAHLTGANSSLTGSGGPLLWETQLGLAFLRGLSYHDGALVVTKAGYYYIYSKVQLGGVGCPLGLASTITHGLYKRTPRYPEELELLVSQQSPCGRATSSSRVWWDSSFLGGVVHLEAGEKVVVRVLDERLVRLRDGTRSYFGAFMV
notes: Soluble protein carries an N-terminal His tag; also called wild-type human LIGHT; LIGHT (74-240) (wt)
B2: LIGHT-52 (ligand)
chain: B1 chain with L147S
notes: Printed mutations: L220S; Soluble protein carries an N-terminal His tag
B3: LIGHT-86 (ligand)
chain: B1 chain with G77R, S87R, L147S
notes: Printed mutations: G150R, S160R, L220S; Soluble protein carries an N-terminal His tag
B4: LIGHT-60 (ligand)
chain: B1 chain with S87G, T88G, L147S, E149S
notes: Printed mutations: S160G, T161G, L220S, E222S; Soluble protein carries an N-terminal His tag
B5: LIGHT-58 (ligand)
chain: B1 chain with S87G, T88G, L147S
notes: Printed mutations: S160G, T161G, L220S; Soluble protein carries an N-terminal His tag
B6: LIGHT-90 (ligand)
chain: B1 chain with S87G, T88G, L147T, E149S
notes: Printed mutations: S160G, T161G, L220T, E222S; Soluble protein carries an N-terminal His tag
B7: LIGHT-61 (ligand)
chain: B1 chain with S87G, T88P, L147S, E149S
notes: Printed mutations: S160G, T161P, L220S, E222S; Soluble protein carries an N-terminal His tag
B8: LIGHT-87 (ligand)
chain: B1 chain with G77R, S87R, W125Q, L147S, R155L
notes: Printed mutations: G150R, S160R, W198Q, L220S, R228L; Soluble protein carries an N-terminal His tag
B9: LIGHT-88 (ligand)
chain: B1 chain with A22T, G77R, S87R, P101L, W125Q, L147S, R155L
notes: Printed mutations: A95T, G150R, S160R, P174L, W198Q, L220S, R228L; Soluble protein carries an N-terminal His tag
B10: LIGHT-89 (ligand)
chain: B1 chain with A22T, G77R, S87R, P101L, W125Q, R155L
notes: Soluble protein carries an N-terminal His tag
B11: LIGHT-42 (ligand)
chain: B1 chain with G77R, L147S
notes: Printed mutations: G150R, L220S; Soluble protein carries an N-terminal His tag
B12: LIGHT-37 (ligand)
chain: B1 chain with A117T, F129Y, K141E
notes: Printed mutations: A190T, F202Y, K214E; Soluble protein carries an N-terminal His tag
B13: LIGHT-35 (ligand)
chain: B1 chain with T88S, L147S, E149N
notes: Printed mutations: T161S, L220S, E222N; Soluble protein carries an N-terminal His tag
B14: LIGHT-31 (ligand)
chain: B1 chain with S87R, T88S, L147S
notes: Printed mutations: S160R, T161S, L220S; Soluble protein carries an N-terminal His tag
B15: LIGHT-34 (ligand)
chain: B1 chain with T88S, L147S
notes: Printed mutations: T161S, L220S; Soluble protein carries an N-terminal His tag
B16: LIGHT-36 (ligand)
chain: B1 chain with H135Y
notes: Printed mutations: H208Y; Soluble protein carries an N-terminal His tag
B17: LIGHT-39 (ligand)
chain: B1 chain with L85P, L93M, L147M
notes: Printed mutations: L158P, L166M, L220M; Soluble protein carries an N-terminal His tag
B18: LIGHT-5 (ligand)
chain: B1 chain with T88P, R116S, W125Q, R155L
notes: Printed mutations: T161P, R189S, W198Q, R228L; Soluble protein carries an N-terminal His tag
B19: LIGHT-7 (ligand)
chain: B1 chain with P82R, L147Q, R159H
notes: Printed mutations: P155R, L220Q, R232H; Soluble protein carries an N-terminal His tag
B20: LIGHT-3 (ligand)
chain: B1 chain with G77A, L147S
notes: Printed mutations: G150A, L220S; Soluble protein carries an N-terminal His tag

biological target: T1, human HVEM extracellular domain fused …; experiment: ELISA on coated target-Fc
Procedure: (§1) Nunc MaxiSorp 96-well plates (Thermofisher) were coated with target proteins (1 μg/ml), and then blocked with 2% BSA-PBS buffer for one hour. Serial dilutions of the LIGHT muteins were added with a maximum concentration of 200 ng/ml. The plates were incubated for one hour, washed four times with PBST, and then incubated with mouse anti-His tag antibody (#105327, Sino Biological) for 1 hour. The plates were further incubated with HRP-conjugated goat anti-mouse secondary antibody (#SSA006, Sino Biological) before being washed three times with PBST and treated with TMB substrate (#34029, ThermoFisher). The plates were read at 450 nm on a SpectraMax M5 microplate reader (Molecule Devices). The ELISA results were analyzed using GraphPad Prism 9.0 software and the EC50s (half maximal effective concentration) were summarized in Table 5-1 and Table 5-2.

Binder	EC50
B1	0.992 nM
B2	0.599 nM
B3	5.27 nM
B4	0.639 nM
B5	0.432 nM
B6	2.12 nM
B7	0.46 nM
B8	6.68 nM

biological target: T4, human LTβR extracellular domain fused with an Fc fragment at the C-terminus (human, UniProt P36941 31-227); experiment: ELISA on coated target-Fc
T4 construct: extracellular domain; Bought; also called hLTβR; not shown: Fc fragment at the C-terminus
Procedure: as §1

T4 sequence (P36941 31-227): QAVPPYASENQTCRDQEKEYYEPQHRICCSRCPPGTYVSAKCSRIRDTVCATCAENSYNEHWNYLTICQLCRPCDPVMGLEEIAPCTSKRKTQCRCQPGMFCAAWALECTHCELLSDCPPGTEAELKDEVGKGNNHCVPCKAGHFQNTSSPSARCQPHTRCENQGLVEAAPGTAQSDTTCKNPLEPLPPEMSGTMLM

Binder	EC50
B1	0.365 nM
B9	0.264 nM
B2	0.33 nM
B3	0.336 nM
B4	0.919 nM
B5	0.309 nM
B6	1.78 nM
B10	0.625 nM
B7	0.482 nM
B8	0.413 nM

biological target: T5, mouse LTβR extracellular domain fused with an Fc fragment at the C-terminus (mouse, UniProt P50284 31-223); experiment: ELISA on coated target-Fc
T5 construct: extracellular domain; Bought; also called mLTβR; not shown: Fc fragment at the C-terminus
Procedure: as §1

T5 sequence (P50284 31-223): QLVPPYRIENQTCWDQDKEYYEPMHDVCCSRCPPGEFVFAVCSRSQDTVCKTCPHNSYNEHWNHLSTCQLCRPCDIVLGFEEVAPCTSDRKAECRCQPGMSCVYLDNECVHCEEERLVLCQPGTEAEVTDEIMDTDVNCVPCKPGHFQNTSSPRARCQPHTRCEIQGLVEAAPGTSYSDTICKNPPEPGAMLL

Binder	EC50
B1	0.885 nM
B9	0.262 nM
B2	2.07 nM
B3	0.327 nM
B4	0.63 nM
B5	0.273 nM
B6	0.978 nM
B10	0.503 nM
B7	0.498 nM
B8	0.315 nM

biological target: T1, human HVEM extracellular domain fused …; experiment: ELISA on coated target-Fc; remark: another data set of the same source
Procedure: as §1

Binder	EC50
B2	0.019 µg/mL
B11	0.0814 µg/mL
B12	0.037 µg/mL
B13	0.0416 µg/mL
B14	0.051 µg/mL
B15	0.0202 µg/mL
B16	0.137 µg/mL
B17	0.049 µg/mL

biological target: T4, human LTβR extracellular domain fused …; experiment: ELISA on coated target-Fc; remark: another data set of the same source
Procedure: as §1

Binder	EC50
B1	0.22 µg/mL
B2	0.0577 µg/mL
B11	0.0639 µg/mL
B12	0.0434 µg/mL
B13	0.0703 µg/mL
B14	0.0867 µg/mL
B15	0.059 µg/mL
B18	0.0538 µg/mL
B16	0.19 µg/mL
B17	0.0542 µg/mL
B19	0.109 µg/mL
B20	0.0436 µg/mL

biological target: T5, mouse LTβR extracellular domain fused …; experiment: ELISA on coated target-Fc; remark: another data set of the same source
Procedure: as §1

Binder	EC50
B2	0.0279 µg/mL
B11	0.025 µg/mL
B12	0.0678 µg/mL
B13	0.0383 µg/mL
B14	0.0747 µg/mL
B15	0.0446 µg/mL
B16	0.27 µg/mL
B17	0.0239 µg/mL
B19	0.156 µg/mL
B20	0.0401 µg/mL

biological target: T2, recombinant DcR3 protein (human DcR3 …); experiment: ELISA on coated DcR3-rabbit Fc
Procedure: To test whether the muteins can bind to DcR3, the recombinant DcR3 protein was generated by linking human DcR3 residues 33-300 to the N-terminal of rabbit Fc. The recombinant proteins were expressed in Expi293F and affinity-purified using protein A beads, as previously described. Human DcR3 proteins were immobilized onto maxiSorp 96-well ELISA plates (Thermo Fisher) at a concentration of 0.5 μg/mL and then blocked with 2% BSA-PBS buffer for one hour. The LIGHT variants were added to the plates at various dilutions, with a maximum concentration of 10 nM. The plates were incubated for one hour, washed four times with PBST, and then incubated with mouse anti-His tag antibody (#105327, Sino Biological) for 1 hour. The plates were further incubated with HRP-conjugated goat anti-mouse secondary antibody (#SSA006, Sino Biological) before being washed three times with PBST and treated with TMB substrate (#34029, ThermoFisher). The plates were read at 450 nm on a SpectraMax M5 microplate reader (Molecule Devices). The ELISA results were analyzed using GraphPad Prism 9.0 software and the EC50s (half maximal effective concentration) were summarized in Table 5-2.

Binder	EC50
B1	0.247 nM
B2	0.19 nM
B3	25.9 nM
B4	0.311 nM
B5	0.184 nM
B6	0.692 nM
B7	0.213 nM

biological target: T1, human HVEM extracellular domain fused …; experiment: ELISA on coated target-Fc, Table 5-1
Procedure: as §1

Binder	binding result
B18	no binding
B19	no binding
B20	no binding

biological target: T3, mouse HVEM extracellular domain fused …; experiment: phage ELISA
Summary of the method: (§2)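 Supernatants from fourth-round clones rescued with helper phage were applied to plates coated with 1 μg/ml target for 1 h at room temperature. Bound phage detected with HRP anti-M13 and TMB at OD450; clones were called positive when the target/BSA ratio was >3.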

Binder	binding result
B1	binds
B2	binds
B11	binds
B12	binds
B13	binds
B14	binds
B15	binds
B18	binds
B16	binds
B17	binds
B19	binds
B20	binds

biological target: T5, mouse LTβR extracellular domain fused …; experiment: phage ELISA
Summary of the method: as §2

Binder	binding result
B18	binds
